Legend:
kallikrein 2 (KLK2) = kallikrein 2 (KLK2) (UniProt P20151)
[1] = target: recombinant soluble murine proADAM10 (truncated, lacking the signal peptide and the regions C-terminal of the protease domain) (murine); assay: SDS-PAGE with western blot + MALDI-TOF; purified recombinant proADAM10; anti-His-tag western blot and MALDI-TOF; a 100-kDa species called the proADAM10 dimer

UniProt P20151, sequence (P20151 19-261): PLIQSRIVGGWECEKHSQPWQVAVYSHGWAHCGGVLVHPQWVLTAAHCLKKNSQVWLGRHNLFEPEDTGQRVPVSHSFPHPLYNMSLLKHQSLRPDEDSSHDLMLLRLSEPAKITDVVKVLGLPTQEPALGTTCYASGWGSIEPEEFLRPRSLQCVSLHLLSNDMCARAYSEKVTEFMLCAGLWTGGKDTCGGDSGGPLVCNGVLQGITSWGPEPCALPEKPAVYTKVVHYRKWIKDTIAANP

Substance	KLK2 proteolytic activity (Z-Pyr-G-R-AMC) after incubation with meprin β-cleaved LEKTI 9–15, relative to uncleaved LEKTI 9–15 (kallikrein 2 (KLK2)) [%]	stoichiometry N [1]
meprin β-cleaved LEKTI 9–14 (domain or fragment)	20	
recombinant soluble murine proADAM10 (truncated, lacking the signal peptide and the regions C-terminal of the protease domain) (domain or fragment)		2

Source: publication PMC3535375
